No end group written: not given here.

Test [1] has as its system pseudotyped NL-Bal viruses. The conditions noted are these: pseudotyped NL-Bal virus, single-cycle, JC53-BL cells.
A further test concerns live NL-Bal viruses. Type of test: cell-based, HIV-1. The conditions noted are these: live NL-Bal virus, JC53-BL cells, luciferase activity.
Test [2] addresses biotinylated HR1 peptide Biotin-T-2324 (HIV-1 gp41 HR1) (Human immunodeficiency virus type 1 group M subtype B, UniProt P04582, G556A). Put plainly: Binding affinity of HR2 containing polypeptides to HR1 by Surface Plasmon Resonance (BIAcore 3000). The conditions noted are these: SPR, 25° C., immobilized HR1 peptide Biotin-T-2324, 1:1 Langmuir model. Background: Surface plasmon resonance follows binding to a sensor surface in real time, without labels.

Description for HIV-1 JR-CSF virus: Human PBMC were isolated from buffy-coats (obtained from the Stanford Blood Center) by a Ficoll-Paque (Amersham, Piscataway, N.J., USA) density gradient centrifugation according to manufacturer's protocol. Briefly, blood was transferred from the buffy coats in 50 ml conical tubes and diluted with sterile Dulbecco's phosphate buffered saline (Invitrogen/Gibco) to a final volume of 50 ml. Twenty-five ml of the diluted blood was transferred to two 50 ml conical tubes, carefully underlayerd with 12.5 ml of Ficoll-Paque Plus (Amersham Biosciences) and centrifuged at room temperature for 20 min. at 450×g without braking. The white cell layer was carefully transferred to a new 50 ml conical tube and washed twice with PBS. To remove remaining red blood cells, cells were incubated for 5 min. at room temperature with ACK lysis buffer (Biosource) and washed one more time with PBS. PBMC were counted and incubated at a concentration of 2-4×10^6 cells/ml in RPMI1640 containing 10% FCS (Invitrogen/Gibco), 1% penicillin/streptomycin, 2 mM L-glutamine, 1 mM sodium-pyruvate, and 2 μg/ml Phytohemagglutinin (Invitrogen) for 24 h at 37° C. […] Virus production was measured at the end of infection by using p24 ELISA (HIV-1 p24 ELISA #NEK050B) using the sigmoid dose-response model with one binding site in Microsoft Excel Fit (version 3.0.5 Build12; equation 205; Microsoft).

Take enfuvirtide: in test [1] (3 day incubation, luciferase activity), the “Antiviral activity IC50” value is 0.38 µg/mL.
For “4972/4802: anti-IGF-1R IgG1: wt light chain 4802, heavy chain 4972 with T-2635 conjugated C-terminally via linker SEQ ID NO: 11 (GGGGSGGGGSGGGGSGGTTWEAWDRAIAEYAARIEALIRAAQEQQEKNEAALREL; also: fused C-terminally to heavy chain of anti-IGF-1R IgG1)”, in the test on live NL-Bal viruses, the “Antiviral activity % Inhibition at 20 μg/mL” value was determined as 43%. Besides, in test [2], the KA was 1.01e+10 M⁻¹, the Kd turned out to be 98.7 pM, the ka worked out at 786000 M⁻¹ s⁻¹ and the kd is 7.76e-05 s⁻¹. Further, in test [1], the “Antiviral activity % Inhibition at 20 μg/mL” value is on record as 27%.
As to `CC[C@H](C)[C@H](NC(=O)[C@H](C)NC(=O)[C@H](CCCNC(=N)N)NC(=O)[C@H](CC(=O)O)NC(=O)[C@H](Cc1c[nH]c2ccccc12)NC(=O)[C@H](C)NC(=O)[C@H](CCC(=O)O)NC(=O)[C@H](Cc1c[nH]c2ccccc12)NC(=O)[C@@H](NC(=O)[C@@H](NC(C)=O)[C@@H](C)O)[C@@H](C)O)C(=O)N[C@@H](C)C(=O)N[C@@H](CCC(=O)O)C(=O)N[C@@H](Cc1ccc(O)cc1)C(=O)N[C@@H](C)C(=O)N[C@@H](C)C(=O)N[C@@H](CCCNC(=N)N)C(=O)N[C@H](C(=O)N[C@@H](CCC(=O)O)C(=O)N[C@@H](C)C(=O)N[C@@H](CC(C)C)C(=O)N[C@H](C(=O)N[C@@H](CCCNC(=N)N)C(=O)N[C@@H](C)C(=O)N[C@@H](C)C(=O)N[C@@H](CCC(N)=O)C(=O)N[C@@H](CCC(=O)O)C(=O)N[C@@H](CCC(N)=O)C(=O)N[C@@H](CCC(N)=O)C(=O)N[C@@H](CCC(=O)O)C(=O)N[C@@H](CCCCN)C(=O)N[C@@H](CC(N)=O)C(=O)N[C@@H](CCC(=O)O)C(=O)N[C@@H](C)C(=O)N[C@@H](C)C(=O)N[C@@H](CC(C)C)C(=O)N[C@@H](CCCNC(=N)N)C(=O)N[C@@H](CCC(=O)O)C(=O)N[C@@H](CC(C)C)C(N)=O)[C@@H](C)CC)[C@@H](C)CC` [Compound T-2635], the “Antiviral activity IC50” value with HIV-1 JR-CSF virus turned out to be 0.004 µg/mL.
Turning to “4970/4802: anti-IGF-1R IgG1: wt light chain 4802, heavy chain 4970 with T-651 conjugated C-terminally via linker SEQ ID NO: 11 (GGGGSGGGGSGGGGSGGNMTWMEWDREINNYTSLIHSLIEESQNQQEKNEQELL; also: fused C-terminally to heavy chain of anti-IGF-1R IgG1)”, the “Antiviral activity % Inhibition at 20 μg/mL” value in the test on live NL-Bal viruses is recorded as 20%. In test [2], this compound displayed a KA of 9.11e+10 M⁻¹, a Kd of 11 pM, a ka of 1.01e+06 M⁻¹ s⁻¹ and a kd of 1.11e-05 s⁻¹. In addition, the “Antiviral activity % Inhibition at 20 μg/mL” value in test [1] is 15%.
With “4976/4818: anti-IGF-1R IgG1: light chain 4976 with T-651 N-terminal (including variable domain), wt heavy chain 4818 (QIWNNMTWMEWDREINNYTSLIHSLIEESQNQQEKNEQELLGGGGSGGGGSGGGGSGAS; also: fused N-terminally to light chain of anti-IGF-1R IgG1)”, the “Antiviral activity % Inhibition at 20 μg/mL” value with live NL-Bal viruses amounted to 38%. In test [2], this compound showed a KA of 2.63e+10 M⁻¹, a Kd of 38 pM, a ka of 923000 M⁻¹ s⁻¹ and a kd of 3.51e-05 s⁻¹. The “Antiviral activity % Inhibition at 20 μg/mL” value in test [1] turned out to be 17%.

For orientation: Kd means the concentration at which binding is half-saturated. A lower Kd goes with a tighter complex.
